From US20170247463A1 come the findings set out here.

Experiment [1] addresses hFcγRIIa131H. Put plainly: -.
For experiment [2], the target named is hFcγRIIIa158V. Put plainly: -; range printed as 0.20~0.28.
For experiment [3], the target named is hFcγRI. The experiment is described as follows: -; range printed as 0.12~0.28.

Turning to IgG 1, the Kd was found to be 0.85 µM in experiment [1], 0.2 µM in experiment [2] and 0.00012 µM in experiment [3].

What is called Kd is the constant that tells how readily two partners part at equilibrium. Low values mean tighter binding, high ones weaker binding.
